According to article PMC4434903:
Blank lines part the entries; values can stand above or below the molecule they belong to.

Tests used:
full length TOP1-His = full length TOP1-His (UniProt Q94AM1); experiment: SEC; Superdex 200 gel filtration of cobalt-column purified His-tagged protein, no DTT; apparent MW by interpolation with conalbumin and aldolase; peak areas at A280
[1] = biological target: T1, TOP2 fused to the N-terminal or the C-terminal half of Renilla luciferase, Q949P2; experiment: split reporter (BiFC, NanoBiT); split Renilla luciferase complementation in Arabidopsis protoplasts co-transformed with NLuc and CLuc fusions; luminescence read 12-16 h after transformation; with or without 100 or 200 uM SA (3 h); settings: remark: other sources report otherwise
T1 chain: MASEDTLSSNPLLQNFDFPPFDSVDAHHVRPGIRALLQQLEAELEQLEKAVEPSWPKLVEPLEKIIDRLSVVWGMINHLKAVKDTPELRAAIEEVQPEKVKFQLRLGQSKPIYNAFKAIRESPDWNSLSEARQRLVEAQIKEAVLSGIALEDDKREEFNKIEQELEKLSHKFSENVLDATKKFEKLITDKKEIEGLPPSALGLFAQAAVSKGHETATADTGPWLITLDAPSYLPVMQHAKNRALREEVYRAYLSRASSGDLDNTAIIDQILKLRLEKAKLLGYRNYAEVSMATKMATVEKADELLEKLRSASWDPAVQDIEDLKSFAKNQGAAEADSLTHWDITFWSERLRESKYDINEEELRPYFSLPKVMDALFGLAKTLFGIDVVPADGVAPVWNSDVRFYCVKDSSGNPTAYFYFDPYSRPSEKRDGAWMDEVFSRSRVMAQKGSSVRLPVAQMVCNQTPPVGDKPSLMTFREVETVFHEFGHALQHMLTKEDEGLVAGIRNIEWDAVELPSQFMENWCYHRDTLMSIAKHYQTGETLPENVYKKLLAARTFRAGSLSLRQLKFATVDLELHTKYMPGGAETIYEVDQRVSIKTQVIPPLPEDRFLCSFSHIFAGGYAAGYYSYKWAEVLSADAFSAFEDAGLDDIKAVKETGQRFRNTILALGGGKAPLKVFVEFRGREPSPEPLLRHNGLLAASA

[2] = biological target: T2, full length TOP2-His, Q949P2; experiment: SEC; Superdex 200 gel filtration of cobalt-column purified His-tagged protein, no DTT; apparent MW by interpolation with conalbumin and aldolase; peak areas at A280; settings: remark: other sources report otherwise
T2 chain: T1 chain

- stoichiometry N (full length TOP1-His): 2
Molecule: full length TOP1-His (from UniProt Q94AM1 83-791) (enzyme)

- fold luminescence intensity over TOP1-TOP1 or TOP1-TOP2 [1]: 3.4 fold
B1: TOP2 fused to the N-terminal or the C-terminal half of Renilla luciferase, Q949P2 1-701 (enzyme)
chain: T1 chain

- stoichiometry N [2]: 2
B2: full length TOP2-His, Q949P2 1-701 (enzyme)
chain: T1 chain
